In a protein production outcome set (Wang et al. 2014):

Assay: label from the status in PepcDB records

Sequence | protein production
MSVILLGLGRYVEEIVEVVSAISDVVLVERDEARLRAFLEKAPVANLRALPGSATDVGLWKEVDLEAAEAVISFLSVEATLDVARLLRKALGYRSKIVHVSKARPDPQAVRELDLEVVSIPEVLGAILRNLLQGQGIVRYPVGIGLRKGEVVEVLITESSPAVYARLRELRQPGARVALVYREGSPILPRADFRVQPGDRLLVVGDPRGVEIFVGAVIRGEPTFPRRFGSVGALCRAEDEEALYLKERLKVRDWVEACEDPKGVAEVGVFLARDRDWVRRAFQEGYPFPSFHLRGTHPYRSILVSANTEALSPLLASAMDLARIFGSEVYVLFVSRVEAFMPPEEKELLENLKVLVERARKTSGLEVHLIRKEGNPVRETLRLLKGKFNLLALGYTPGRRTAFFRPYVPQLLAQASPVSTLLVPEVNLER | failed
MSVLSALQYYFFYPSFFLTVIFPGLIFTLIFLLVTIWFERKAAAIVQLRYGPYYASKRLGGILQLFADAIKFVFSEIIIPNGVNQTLYAISPVLVLIFAFLPMALIPISTIPTQGSILSVYHGIFYDTQIHQGILVPYFIEYNLIGIIALESLYPILVIFLAWNTNNRFAIVGSIREAYLSVSYDVLIIISTLALGLEYHTLDVAKIVTSGIPGFIANPIAAFVFLVAMLIGSSRFPFEIVEAETELVIGPYTEYSGFLFVLTMAGSYVANLVYAILFVDLFLGGWLPFTGFVGAIFTVFKAAIVVFFAVFLRAVYGRYRIDQALRGSWKYFFPLALASLLLGVVVGYLWIR | failed
MSVNDTGHSDNYTWNRQVYHRLKLALSLGLRRQLFLAVCDDLHLRNQVAARLHSTLAYPVGQVLYQSLDGKEASTSAYPRLVTLRLNLNEPNPIAQINQWLANYPPPIVGASKDNPGKPLPIPTFQLVGVEQLTKQTVASQRLFLHYLRLSEQFFAAQESSRFLESSVLLWVSRPWLSAIQQSAPQFWRWRTGVFVFAGEPTPTTQNSGHPERFSNSRSVKLGNLEQSALDELSMEGEVRSPSTTEFNFGDEVSLPTEILGNHPQPKEETPPLISELPPTQQKPQELTVRSSAANSSSLLSLSHVSQELTDLVLATINTKISSEAEDDWQPQELLLEIEELHSQSASGEILAAAYHQLGNLYRLRIEQGQSTLEDLMVAIIAYQESISYDENSPQLPDILNDLGTLYWMLYRTPPNLEEGQTYIEQGIEFYELALKIISPETHPDTYARVHNNLGTAYGDLARFASPAENWQQAVVSYSKALLHRTVESDPLKYAACQNNLGTAYWHLAQYNQPVVHLKKAIASYKQSLAHYNPQDEPLKYGMIQNNVGTAYWNLAQYEQPGENLQLAIDVYSEALKYRTAAMVPNACAATQNNLGTAYWHLANLPQTTKDVRQKLLILCINAYEEAIALAHSLSNVSLSFDLFATHNNLGLAHYQLVTDNYFSGDKGRRSHHLEAALDNHLQALNGLSKQPEAYQATFAYVVKTVRAFHNELGIQGQNLALSKVPGHLLPEILPKL | failed
MSVNGAFSPCVVIPCYNHGAMMASVLVRLAPLALPVFIVDDGSDAATQHVLNLLAAENDGVTLIRLANNSGKGAAVMRGIEAVAQAGFSHALQVDADGQHQIEDAPLLLDEAKTHPDCLISGRPRYDDSVPKSRLYGRYVTHVWVWIETLSLSIKDSMCGFRVYPVAATVSLLSRKSLGRRMDFDTEIMVRLYWAGTPSRFIETAVTYPENGLSHFDALHDNLRISWMHTRLFFGMLPRIPVLLMRQRQQHWAGVSERKGLLGMRFMLAVYQRLGRGVFTLFLWPVIAFYWLTGRTARKASQSWLRQIGEYAHQQDILLPKPLNSYHHFLRFGQAMLDKIASWRGDLHWGRDIDFAPGAQEAIEHGRQKGQLILASHLGDIEVCRALAPQVSGLVINALVFTENSQRFKQVLEEIAPQAGVNLIPVSNIGPDTAIMLQQKLDAGEWVAIVGDRTAVHRQRGGVRRVVWSPFLGKEAPFPQGPFVLAAALRCPVLLMFVIREQKKLRVYCEPFADSITLPRPTRQQALQQVVDRYAERLAHYALKSPLDWFNFFDFWSLPDDDGRTAGKKESLEHHHHHH | failed
MSVNPFQTMRARYFLIVFALLTVVARASNELIENTFHMQNSTFINILIFYILPITWIYFAYKKHRVAFSLFINRNETFNLVQVLYITIMLCVFSYGYLILYMYSFAWITPTFIMNALREPIMDSTGGYVYQVIMVVFIAPIIGEFVFRGFLLQRFAAKWGTSIAIIVVAILFALLHVDFLGAIVFSVVLSIVYIRTNSLLMPIAIHMLNNAFVIGASFLINKEEIMSFADFSNYTTFFPGLIIFITGLNLVLIFLFVNRKYWSKEMPAIYVEQEKSFSDVVGSK | failed
MSVQLKCDAVNCVYNRSHLCSAEEIEVQGGETTGGDATFCGTFSSKSLGNFVSSLGNMNYSGSLKQAVSAEPIMDPKVHCNAVNCTYNDQRYCHADQVEIRNEVSHTAEELEHHHHHH | not failed
MSVWLLQMKTNAIITDITKSIVKMDRILVYRHTNPDPDAIGAQFGLVALLKAAYPEKLVVAMAPVPGHLAWIDTTDEQLVTPQATDLVIAVDCANHERLAGELPTGAFVIKIDHHPNHDPYGQLNWVDETYSSCSEMIYELAQAGCFTVTAAVATKLYAGIIGDTVRFSTPETSTRTLKIASALAATDIDIATISHHEMDLT | failed
MSYEKEFLKDFEDWVKTQIQVNQLAMATSQEVAQEDGDERAKDAFIRYESKLDAYEFLLGKFDNYKNGKAFHDIPDELFGARHY | not failed
MSYFDQDDKEVLAPNSDVIAATTTTATTATHGIEVATEFKPVEHPVEPLDNDLPIQCPLPEPSILNDGRIWKERVSASMRRKGDLQIVKDEAASESDGSAPKPPRPPQPNRSILPSLSAPEHNLLNLLEECNAMPPVTSKNG | failed
MSYIPPHKRHSKDPTKPTPVPDSLVTKFKKNLDFKSSTSSVKRNKIIYSGDSISKWFLVGSNGIEDDVPSYVKFVPLSSDSVECRKGEKPSILMNNNVQNVNMNIGERKDERTQWLLVAEKVMEDLVLAYERVKTEMKEHHHVSRLVARFGKIFFYGSQAGPVAECSLKNLNKMFSTDLPMSYLQHIKSNVVPSHGFSIDKEKETYTVKVSHYSRPNATINCKCTRKEDGRLSMYKASLEFYVDLNPVRHLVVDVSCIDKNLDMRLTLTAKREITYLSDKEIGDIKALLESATVDPNVKGGLRWPFGKALSEDGYKEFEVCHVRATIYKNKTLRLRVRETDRFNETTGTGETKREVSLTLKDIDTKIQEQNTERGCVLEMLRDALGTIWDFLHCDAYLT | not failed
MSYKVEAVPDSYAALGEGPHWDVDRQSLYYVDLESAGINRYDFKQNKVYRAKIEGEIFASFILPVENKPQEFAVGCGLRTVIVQWDGVSAVAKVTRTLFEVQPDLKENRLNDAKTDPNGRFYGGTMADSGDIFTQWKGELYSWQAGGQPNAIRSKVGISNGLAWDVKAKKFYFIDTNNHEVLAYDYNQSTGAVSNPKVIFDLRKIRPEGPLFPDGMTVDTDGNIYVATFNGGTVFKVNPSTGKILLEIKIPTTQITSVAFGGPNLDILYVTTANKFDQPKPAGTTFQVTGLNAKGYAGVNLKI | failed
MSYLDTATDLPNQTLFLEYLNIALSNARRHHAQVGVLLCQINNWSDLKRKRGDAVANAFLQEAGQKLKSNLRNGDIVSRWDKDEFIFLVSKVQDTSSLLGIAQRLMKPVLAPVTAGGRPFQPEITYGVALYPVDGEQVNDLIGHIRENLQQLLPQPTLEHHHHHH | failed
MSYLGGYGLIYLVTIVGYFILASFLGSFQLSSDLFNFEFYSSLSGISALMVWAFWLFLIYLNIILVVRRLHDLNKSGWMGLLLFIPVVQFFFMLYLLLASGTAGTNQYGPVRPSTFIEKLMAWLILIAILISLISTVGFFYYFSGTDTIQTPTQILQKGTEYF | failed
MSYRTISAEEAVMAIKSGDRVFLHTAAATPLRLIEAMVSRASHLRDVEIVSLHTEGDAPYVRPEFQESFRLNAFFVGRNVRSAVQCGYADAIPIFLSDVPAMFYDGVMPLDVALVHVSPPDRHGYCSLGVSVDATRAAVHTARHVIAQVNPNMPRTHGEGLLHVSKIHSLVEVDDPLPETPRHELTDVERQIGQHIASIVEDGATLQMGIGAIPDATLAALTNHKDLGIHSEMFSDGVVDLVEKGVVNGRCKKTHNEIIVASFLVGTRKLYDFVDDNPLVEMFGSDYVNDTKEIRKNPKVTAINSAIEIDMTGQVCADSIGTRHFSGVGGQMDFIRGAALSPGGKPIIALPATTRKGESRIVTQLKPGAGVVTTRAHVQYVVTEYGIVNLHGKNLRQRAEALATIAHPDFREEILRQAHELYGRKSNCLID | failed
MSYSTFALCHWARDRQRGRKTVADMVHRMTQATARVIGLEDRGELAVGKRADINVIDLAQLALRPPQVCHDLPAGGRRLIQRATGYSLTMLAGEIVLRDDEPLEHHHHHH | not failed
MSYTPMSDLGQQGLFDITRTLLQQPDLASLCEALSQLVKRSALADNAAIVLWQAQTQRASYYASREKDTPIKYEDETVLAHGPVRSILSRPDTLHCSYEEFCETWPQLAAGGLYPKFGHYCLMPLAAGGHIFGGCEFIRYDER | failed
MTAAPLVSVLLPVYNAGPYLAAALGSILRQDYGRLEVIAIDDGSSDNSLEILERYRQADSRVSIISRENRGLVATLNEGLAAAQGELVARMDADDVAYPWRLSRQVALFEQRPELGFCGAGVDMLIRGRIARGRPDPVFRFGRMPILAMFFTIFMHPTVVYNRKVIEDADLHYDPTYRHAEDFDLFGRLAARYPAAMMPENLLVYRVHQASVTSRHGKEMRRTHLRIVAENLEREGLAEATRDLRDIGEAVSFDTVTRAADFIVALEERIRSLPAETRPSFEAGALNLFYFLYQLVADERQPPLTHELLRRTAKWNAIRRREKYALRPGAWAPWLSLASLAAGKQADAVEYFFKSAPAAAVLASHQVG | failed
MTAASETFDVVVVGAGPAGGQCARRLAQAGRTVLLVDQLKTWTDHDFSSGGTPLETLDRFQLPDRVIGSRWSQLRVVTTREDHTWKSARSLGCVLDFAALRQFLAEETTTHGGSVRLGWQYRDRQQLTDGRWQIRFRDRLTSSDRWVTSRAVVDATGSARKVIYTAAEPRPDYLRGVGIEYLIEVPETVYQRFADALHFYLGHHWLPKGYSWIFPMQSGRLKVGACWFHGDHRFLKPDQPLRHYIDLLLTEQVQCPDYRLVDVHGAAIDYSGDRCDRHVQASILGIGDAVSAINFLGGEGIRHGLESADRAAQVLDAWLQGTVPDLSSYEQQIRRRFDRLWTLSLRLGMKKYLQDSDAKIDRIVRWCCALSTDDLMAILFDYRFQRLGRRLGRFFWLSVMTRLRLRWQRWRRPSHVA | failed
MTADLFDGLDDAPRRQDIAPGAALLSGFARANERELLAAIDAVVARAPFRHMMTPGGHTMSVAMTSCGSVGWVTDRRGYRYSPNDPDSATPWPKMPAVLRDLAQRAAADVGFAGFDPDACLINRYVPGAKMALHQDKDEADFSAPIVSVSLGLPAIFQFGGMARSDKPRRYELRHGDVLVWGGPSRLVYHGVLTLKDGEHPLLGRQRINLTFRKAL | failed
MTAEDGAAYIAFLADPQPSAQWVGRRGTPRDRHDWRPFEGPLSPASIRHARKILSTLYGCLIEQGHARANPFEVLSLPTGGDAPRIQVARSFTEPQWRFLLRHVSSLPADDPRAARLTFMLHLAHASGLRISEQAVATVGHLTWSGHWTLAVPGPKPRQIPLPEAVIDALRGHLAARGLGRGFESLPAATPLIGRVKTGDEGDALSVAQIGAIWKRYFAQAATLAGGEDDAAQLAQASAHWMRHTAGAHAVARGVALEVVQQQLGHASLDTTSMYVLAA | failed
MTAFAAASPRAAVRTGFDGLAISVATRAMMKNLDQNFDAILITGPTASGKSALALRLARERNGVVINADSMQVYDTLRVLTARPSDHEMEGVPHRLYGHVPAGSAYSTGEWLRDISGLLSDLRGEGRFPVIVGGTGLYFKALTGGLSDMPAIPDDLREGLRARLIEEGAAKLHAELVSRDPSMAQMLQPGDGQRIVRALEVLEATGKSIRDFQRASGPMIIDPERAQKFIVLPERPVLHDRINRRFEAMMDSGAVEEVQALLALNLAPDATAMKAIGVAQIADMLTGRMGAAEVIEKSAAATRQYAKRQMTWFRNQMGDDWTRIQPLEHHHHHH | failed
